Data: patent US20240109859

Target: T1, IRF3 wild-type (UniProt Q14653 Q14653:1-427)
T1 sequence: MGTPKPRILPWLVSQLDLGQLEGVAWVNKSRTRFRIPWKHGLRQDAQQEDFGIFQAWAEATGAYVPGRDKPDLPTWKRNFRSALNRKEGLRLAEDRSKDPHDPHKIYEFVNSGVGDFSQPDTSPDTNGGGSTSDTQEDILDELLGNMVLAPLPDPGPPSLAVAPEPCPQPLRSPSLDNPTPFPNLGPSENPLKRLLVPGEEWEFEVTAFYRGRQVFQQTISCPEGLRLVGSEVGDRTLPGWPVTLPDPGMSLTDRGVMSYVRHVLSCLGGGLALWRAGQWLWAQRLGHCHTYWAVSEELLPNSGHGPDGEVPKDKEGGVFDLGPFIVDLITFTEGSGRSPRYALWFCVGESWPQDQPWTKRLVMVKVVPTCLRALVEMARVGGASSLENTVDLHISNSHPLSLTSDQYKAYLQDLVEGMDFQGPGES
Experiment: EMSA; 2.5 nM probe, 10 mM Tris pH 7.5, 50 mM NaCl, 2 mM DTT, room temperature 45 min; cold probe competition
Conditions: tags: Flag, expressed in HEK293T; label: 32P
Protocol: Electrophoresis Mobility Shift Assay (EMSA). Flag-IRF3-WT and Flag-IRF3-N85D were purified from HEK293T cells. Binding reactions were carried out in 20 μl volumes containing: 2.5 nM P32 labeled DNA probe targeting IFN-β promoter (forward: […] (SEQ ID NO: 41); reverse: […]) (SEQ ID NO: 42); 10 mM Tris pH 7.5; 50 mM NaCl; 2 mM DTT and indicated purified Flag-IRF3-WT or Flag-IRF3-N85D. Unlabeled probe (cold probe) was used for competition assay. Reactions were incubated at room temperature for 45 min, and resolved in 6% polyacrylamide gels (29:1 crosslinking) with 0.5×TBE running buffer at […] on ice until the loading dye front reached the bottom of the gel. Gels were dried and analyzed using phosphorimaging instrumentation.

B1: IFN-beta promoter probe (dsDNA)
DNA 1: GCACCGCTAACCGAAACCGAAACTGTGC
DNA 2: GCACAGTTTCGGTTTCGGTTAGCGGTGC
B1: binds.
